Assay results: patent US20060252677A1

Target: NMDA receptor (NMDA receptor/2B subunit and NMDA receptor I) expressed in Xenopus oocytes (human) (UniProt Q13224)
Assay: cell-based or functional assay

Protein-X (novel PSD) expressed from injected RNA in Xenopus oocytes, sequence (Q5T2T1 whole entry K322R): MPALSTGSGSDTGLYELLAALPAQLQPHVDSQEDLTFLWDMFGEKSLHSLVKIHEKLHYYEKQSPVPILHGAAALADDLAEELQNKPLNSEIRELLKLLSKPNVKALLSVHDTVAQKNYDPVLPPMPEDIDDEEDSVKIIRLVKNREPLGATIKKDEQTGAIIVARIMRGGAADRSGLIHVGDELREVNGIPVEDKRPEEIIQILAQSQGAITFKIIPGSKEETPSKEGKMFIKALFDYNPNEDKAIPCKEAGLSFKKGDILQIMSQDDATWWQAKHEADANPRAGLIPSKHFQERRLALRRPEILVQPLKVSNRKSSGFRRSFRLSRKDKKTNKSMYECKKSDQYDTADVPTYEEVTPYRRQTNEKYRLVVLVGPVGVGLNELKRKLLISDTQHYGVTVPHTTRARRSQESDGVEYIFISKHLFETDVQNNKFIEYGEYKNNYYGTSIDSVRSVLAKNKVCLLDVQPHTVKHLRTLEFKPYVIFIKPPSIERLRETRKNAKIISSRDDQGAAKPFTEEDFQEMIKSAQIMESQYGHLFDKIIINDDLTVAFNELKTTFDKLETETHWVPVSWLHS

Protein-X (novel PSD) expressed from injected RNA in Xenopus oocytes (from UniProt Q5T2T1 1-576)
Current variation (µA), Average: 0.55 µA | Current variation (µA), Standard deviation: 0.15 µA | Current variation (µA), oocyte #1, 1000 µM Glu + 10 µM Gly: 0.6 µA | Current variation (µA), oocyte #2, 1000 µM Glu + 10 µM Gly: 0.81 µA | Current variation (µA), oocyte #3, 1000 µM Glu + 10 µM Gly: 0.38 µA | Current variation (µA), oocyte #4, 1000 µM Glu + 10 µM Gly: 0.57 µA | Current variation (µA), oocyte #5, 1000 µM Glu + 10 µM Gly: 0.41 µA | Current variation (µA), oocyte #6, 1000 µM Glu + 10 µM Gly: 0.54 µA | current response to the ligand stimulation, against oocytes expressing PSD-95 with the NMDA receptor: 1.5 times
